The values that follow come from patent publication US20250051463A1 (AstraZeneca / MedImmune, published 2025).

The target in assay [1] is T1, human CD123 (IL3Rα) on cells (human, UniProt P26951 19-378).
T1 construct: whole, on cells; also called human IL3Rα expressed on 293 cells; AD293hIL3Rα
Nature of the assay: flow cytometry on EOL-1 cells, geometric mean. As for the experimental part: On the day of plating, cells were spun down at 1500 rpm for 3 minutes, counted, and resuspended to a final concentration of 1×10⁶ cells/ml. […] Plates were incubated at 4° C. for 30 minutes. Following incubation plates were washed 3 times by spinning down at 1500 rpm for 3 minutes, flicked and 100 μl of FACS buffer were added. […] Flow data was analyzed in FlowJo software.
(In flow cytometry, cells or beads pass a laser one at a time.)
Target sequence in this assay (P26951 19-378): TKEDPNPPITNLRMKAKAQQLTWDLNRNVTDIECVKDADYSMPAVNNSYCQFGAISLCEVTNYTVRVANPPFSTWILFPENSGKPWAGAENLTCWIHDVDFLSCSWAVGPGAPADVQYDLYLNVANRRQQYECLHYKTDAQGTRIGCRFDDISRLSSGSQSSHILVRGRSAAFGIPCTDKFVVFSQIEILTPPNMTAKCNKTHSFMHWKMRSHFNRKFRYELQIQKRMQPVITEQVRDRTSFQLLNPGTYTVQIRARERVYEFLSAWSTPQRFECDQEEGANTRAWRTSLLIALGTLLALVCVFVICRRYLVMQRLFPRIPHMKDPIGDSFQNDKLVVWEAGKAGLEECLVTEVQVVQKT

Assay [2] concerns the target T1, human CD123 (IL3Rα) on cells. Nature of the assay: flow cytometry on THP-1 CD123(+dox) cells, Geo MFI. On the procedure:
THP-1 cells were transfected with an IL3Rα expression construct under the control of a doxycycline inducible promoter. THP-1 cells were maintained in DMEM containing 10% heat-inactivated fetal bovine serum (FBS) and were cultured in a humidified atmosphere of 5% CO₂ and at a temperature of 37° C. […] (Dox) inducible cells were stimulated with 1 μg/ml dox overnight before use. […] On the day of plating, cells were spun down at 1500 rpm for 3 minutes, counted, and resuspended to a final concentration of 1×10⁶ cells/ml. Two hundred μl of cells were plated in wells of 96 well microtiter plates. The plates were spun down at 1500 rpm for 3 minutes and flicked to remove media. One hundred μl of FACS buffer (PBS+2% FBS) was added to each well. […] The antibody concentration started at 12 μg/ml followed by six 1:3 dilutions (no antibody control was also run). The plates were incubated at 4° C. for 30 minutes. Following incubation, the plates were washed 3 times by spinning down at 1500 rpm for 3 minutes, flicked and 100 μl of FACs buffer was added. Alexa 647 secondary antibody (goat anti-human IgG (H+L)) was added at 1:1000 dilution in 100 μl followed by 30 minute 4° C. incubation. The plates were washed as above. […] Cells were analyzed on a BD Bioscience LSRII by collecting 10,000 cells. Flow data was analyzed in FlowJo software.
Target sequence in this assay (P26951 19-378): as above

In assay [3] the target is T2, human IL3Rα (CD123), sample in solution for biolayer interferometry (human, UniProt P26951 19-305, limits assumed).
T2 construct: Soluble analyte in the Octet assay; also called hIL3-Rα; hIL3Rα
T2 sequence (looked up): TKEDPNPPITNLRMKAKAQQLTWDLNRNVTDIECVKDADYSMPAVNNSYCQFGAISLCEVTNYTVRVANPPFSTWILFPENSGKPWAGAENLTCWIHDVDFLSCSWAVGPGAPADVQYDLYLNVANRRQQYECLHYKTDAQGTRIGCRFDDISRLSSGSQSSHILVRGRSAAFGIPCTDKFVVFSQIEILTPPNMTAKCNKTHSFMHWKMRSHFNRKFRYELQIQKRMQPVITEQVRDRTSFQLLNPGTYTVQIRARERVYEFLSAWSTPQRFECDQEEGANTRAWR
Nature of the assay: biolayer interferometry (Octet RED384), antibody on AHC sensor, hIL3-Rα 10-0.16 µg/mL in solution, 1:1 fit. On the procedure:
Biolayer interferometry binding experiments were performed using an Octet RED384 instrument, with all measurements made at 30° C. AHC biosensor probes were soaked in kinetics buffer (PBS pH 7.2+0.02% Tween-20, 0.1% BSA, 0.05% sodium azide) for 10 minutes, followed by baseline signal measurement in kinetics buffer for 60 seconds. […] For binding to hIL3-Rα, the antibody-loaded biosensor tips were dipped in binding buffer for 60 sec (baseline), followed by immersion in a solution containing dilutions of hIL3-Rα (10-0.16 μg/mL) for 300 sec (association), and subsequent immersion in kinetics buffer for 400 sec (dissociation). For binding to hIL5-Rα and GM-CSFRa, all steps were the same except the concentration of antigen was increased (50-1.56 μg/mL) and the dissociation step was decreased to 300 sec. The signal from a buffer only reference sample was subtracted, and all curves were fit with a 1:1 binding model to determine KD values.

Assay [4] addresses T1, human CD123 (IL3Rα) on cells. The assay can be described thus: flow cytometry with Alexa 647 labelled antibody on Ad293 cells expressing human IL3Ra, geometric mean. As for the experimental part: (§1) AD293 cells were maintained in DMEM (Dulbecco's Modified Eagle Medium) containing 10% heat-inactivated fetal bovine serum (FBS) and were cultured in a humidified atmosphere of 5% CO2 and at a temperature of 37° C. On the day of plating, cells were spun down at 1500 rpm for 3 minutes, counted, and resuspended to a final concentration of 0.3×10⁶ cells/ml. Two hundred μl of cells were plated to wells of 96 well microtiter plate. Plates were spun down at 1500 rpm for 3 minutes and flicked to remove media. One hundred μl of FACs buffer (PBS [Phosphate Buffer Saline]+2% FBS) was added to the wells. Plates were then spun again as above followed by addition of primary antibody in 100 μl of FACS buffer. […] Antibody concentration started at 12 μg/ml followed by six 1:3 dilutions (no antibody control was also run). Plates were incubated at 4° C. for 30 minutes. Following incubation plates were washed 3 times by spinning down at 1500 rpm for 3 minutes, flicked and 100 μl of FACS buffer were added. Following a final wash, 100 μl of FACS buffer containing live/dead DAPI (diamidino-2-phenylindole) stain was added to the plates. […] Flow data was analyzed in FlowJo software.

Assay [5] has as its target T3, mouse IL3Rα expressed on 293 cells (mouse, UniProt P26952 17-396).
T3 construct: whole, on cells; also called mouse CD123
T3 sequence (looked up): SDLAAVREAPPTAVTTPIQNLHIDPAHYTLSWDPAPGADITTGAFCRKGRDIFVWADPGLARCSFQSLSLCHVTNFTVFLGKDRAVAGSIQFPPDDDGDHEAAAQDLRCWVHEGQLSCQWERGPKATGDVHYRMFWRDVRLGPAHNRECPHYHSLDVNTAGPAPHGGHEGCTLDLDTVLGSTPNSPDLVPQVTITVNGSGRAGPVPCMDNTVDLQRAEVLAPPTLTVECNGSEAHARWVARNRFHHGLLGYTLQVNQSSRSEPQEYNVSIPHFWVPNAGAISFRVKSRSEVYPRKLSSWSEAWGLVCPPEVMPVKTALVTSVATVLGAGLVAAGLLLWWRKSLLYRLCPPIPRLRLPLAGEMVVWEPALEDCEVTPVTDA
The assay can be described thus: flow cytometry with Alexa 647 labelled antibody on Ad293 cells expressing mouse IL3Ra, geometric mean. On the procedure: as §1

Assay [6] addresses T4, cynomolgus IL3Rα (CD123), sample in solution for biolayer interferometry (cynomolgus).
T4 construct: Soluble analyte in the Octet assay; construct not described; also called cynomolgus CD123 sample
Nature of the assay: kinetic binding curves, antibody on the sensor, cyIL3Ra in solution; the sheet prints Temperature: 25 C.

B1: HT12-GL antibody (antibody, human IgG1, kappa, V domains shown)
VH: EVQLLESGGGLVQPGGSLRLSCAASGFTFNIYAMTWVRQAPGKGLEWVSGISAGGDSTYYADSVKGRFTISRDNSKNTLYLQMNSLRAEDTAVYYCAKDRGYYYGMDVWGQGTTVTVSS
VL: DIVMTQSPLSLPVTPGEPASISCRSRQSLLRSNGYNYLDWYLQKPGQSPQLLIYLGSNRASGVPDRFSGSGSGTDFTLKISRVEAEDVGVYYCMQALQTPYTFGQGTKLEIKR
notes: elsewhere unlabeled with a secondary antibody; also called HT12-GL mAb; CD123 mAb
As to B1, the EC50 (read off the curve) (usually the concentration at which the effect is half-maximal) in assay [1] was about 0.04 µg/mL; in assay [2] it was about 0.3 µg/mL; in assay [4] it was about 1 µg/mL. The dissociation constant Kd (usually the free concentration of one partner at which half of the binding sites on the other are occupied at equilibrium, for simple one-to-one binding) in assay [3] was determined as 0.31 nM; in assay [6] it was 0.656 nM. Further, the binding result in assay [5] is “no binding (tested: log 1.1 ug/ml (about 12 ug/ml))”.
